Experimental data published in article PMC9365917, “Modulation of osteogenic differentiation by Escherichia coli-derived recombinant bone morphogenetic protein-2” (AMB Express, 2022).

T1: BMP receptor type 2 (UniProt Q13873 27-150)
T1 construct: BMP receptor type 2 (BMPR2); No catalogue number is printed; also called BMPR2; source: bought: Thermo Fisher Scientific Co
T1 sequence (looked up): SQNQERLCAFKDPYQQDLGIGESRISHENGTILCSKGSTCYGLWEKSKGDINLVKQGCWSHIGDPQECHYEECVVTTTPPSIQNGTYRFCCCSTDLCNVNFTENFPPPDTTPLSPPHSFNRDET

B1: Chinese hamster ovary cell-derived recombinant human bone morphogenetic protein-2 (ligand, UniProt P12643 283-396, looked up)
chain: QAKHKQRKRLKSSCKRHPLYVDFSDVGWNDWIVAPPGYHAFYCHGECPFPLADHLNSTNHAIVQTLVNSVNSKIPKACCVPTELSAISMLYLDENEKVVLKNYQDMVVEGCGCR
modifications: N-glycan (position not given)
notes: Bone morphogenetic protein 2 (BMP-2), human, CHO cell-derived, glycosylated; also called C-rhBMP-2; CHO cell-derived rhBMP-2; source: CHO cell-derived; bought: National Institute for Biological Standards and Control
B2: Escherichia coli-derived recombinant human bone morphogenetic protein-2 (ligand, UniProt P12643 283-396, looked up)
chain: QAKHKQRKRLKSSCKRHPLYVDFSDVGWNDWIVAPPGYHAFYCHGECPFPLADHLNSTNHAIVQTLVNSVNSKIPKACCVPTELSAISMLYLDENEKVVLKNYQDMVVEGCGCR
notes: Bone morphogenetic protein 2 (BMP-2), human; no glycans; Not glycosylated (made in E. coli); an added N-terminal methionine is not spoken of; also called E-rhBMP-2; E. coli-derived rhBMP-2; source: E. coli-derived; provided by Daewoong Pharmaceutical Co., Ltd

Tests used:
Assay in all cases: SPR; Biacore T200; rhBMP-2 (ligand) immobilised by EDC/NHS coupling, target level 500 RU, in 10 mM sodium acetate pH 6.0; receptors as analytes, 10-2000 nM, 30 µL/min, 120 s association and 120 s dissociation; 1:1 binding model
Details in all cases: both partners purified
BMP receptor type 2 = target: T1, BMP receptor type 2
[1] = target: B2
[2] = target: B1

| Binder | Kd (BMP receptor type 2) | Kd [1] | kon [1] | Kd [2] | kon [2] |
| --- | --- | --- | --- | --- | --- |
| B1 | 141 nM |  |  |  |  |
| B2 | 140 nM |  |  |  |  |
| BMP receptor type 1B (receptor, UniProt O00238 14-126, looked up, BMP receptor type 1B (BMPR1B); No catalogue number is printed; also called BMPR1B; source: bought: Thermo Fisher Scientific Co) KKEDGESTAPTPRPKVLRCKCHHHCPEDSVNNICSTDGYCFTMIEEDDSGLPVVTSGCLGLEGSDFQCRDTPIPHQRRSIECCTERNECNKDLHPTLPPLKNRDFVDGPIHHR |  | 194 nM | 1960 M⁻¹ s⁻¹ | 74.3 nM | 3470 M⁻¹ s⁻¹ |
